Laboratory results as given in patent US20120277281A1, “POLYNUCLEOTIDES FOR MEDICAL USE” (MAX-DELBRÜCK-CENTRUM FÜR MOLEKULARE MEDIZIN, priority 2009, published 2012).

How the values were obtained:
[1] = target: T1, CSF1R (Homo sapiens, UniProt P07333); assay: CSF1R tyrosine phosphorylation in L540Cy cells (CSF1R IP, p-Tyr western blot); format: cell-based; conditions: L540Cy cells stimulated with rhCSF-1
T1 construct: endogenous in cells; host or cells: L540Cy (Hodgkin/Reed-Sternberg cell line)
T1 sequence (P07333 20-972): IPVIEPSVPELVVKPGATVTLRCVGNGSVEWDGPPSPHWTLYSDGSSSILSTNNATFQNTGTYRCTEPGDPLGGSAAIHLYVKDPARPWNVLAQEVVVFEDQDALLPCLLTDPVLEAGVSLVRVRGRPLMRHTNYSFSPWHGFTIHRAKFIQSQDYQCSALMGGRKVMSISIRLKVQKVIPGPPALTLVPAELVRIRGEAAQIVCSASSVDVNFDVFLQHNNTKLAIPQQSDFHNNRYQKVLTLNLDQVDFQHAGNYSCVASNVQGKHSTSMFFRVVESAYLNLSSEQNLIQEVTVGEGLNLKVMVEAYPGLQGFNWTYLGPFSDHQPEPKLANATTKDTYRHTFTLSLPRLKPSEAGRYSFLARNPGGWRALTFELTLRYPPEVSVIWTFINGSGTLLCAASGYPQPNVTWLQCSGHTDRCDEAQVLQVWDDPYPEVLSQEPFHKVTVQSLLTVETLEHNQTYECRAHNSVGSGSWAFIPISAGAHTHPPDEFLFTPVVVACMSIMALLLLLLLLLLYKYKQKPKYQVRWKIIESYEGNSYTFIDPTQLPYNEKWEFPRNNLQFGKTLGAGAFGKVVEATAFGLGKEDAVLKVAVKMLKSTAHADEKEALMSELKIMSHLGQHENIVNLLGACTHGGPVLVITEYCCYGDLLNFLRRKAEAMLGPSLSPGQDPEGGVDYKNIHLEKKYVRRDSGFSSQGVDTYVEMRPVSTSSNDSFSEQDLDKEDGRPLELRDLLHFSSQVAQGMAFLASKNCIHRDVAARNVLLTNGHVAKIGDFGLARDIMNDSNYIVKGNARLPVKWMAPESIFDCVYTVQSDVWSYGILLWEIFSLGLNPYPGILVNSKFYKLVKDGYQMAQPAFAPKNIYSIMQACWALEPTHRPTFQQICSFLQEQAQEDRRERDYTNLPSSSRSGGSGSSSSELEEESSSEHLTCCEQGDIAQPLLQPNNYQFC
Method: FIG. 1. Lineage-inappropriate expression of functional CSF1R and CSF-1 in Hodgkin lymphoma cells. Analysis of CSF1R and CSF-1 protein expression and of CSF1R:Fc functionality. (A) Analysis of CSF1R and CSF1 mRNA expression by RT-PCR in Hodgkin and non-Hodgkin cell lines. Expression of GAPDH was analyzed as a control. (1a) Analysis of CSF1R and CSF1 mRNA expression by RT-PCR in Hodgkin's and non-Hodgkin's cell lines. GAPDH expression was analyzed as a control. One representative of four independent experiments is shown. (B, C) Analysis of CSF1R (B) and CSF-1 (C) protein expression in various cell lines by extracellular and intracellular flow cytometry, respectively. IC, isotype control. (D) Supernatants of various cell lines were analyzed by a CSF-1-specific ELISA. […] CSF1R tyrosine phosphorylation was detected by WB with an antibody recognizing phospho-tyrosine (p-Tyr; upper panel). […] CSF1R tyrosine phosphorylation was detected by western blotting with an antibody recognizing phosphotyrosine (p-Tyr; top). […]
FIG. 3. […] After 48 hours, cells were pulsed with 1 μCi [^3H]-thymidine per well for a further 20 hours, and [^3H]-thymidine incorporation was determined cpm, counts per minute. […] (3A) [^3H]-thymidine incorporation in L540Cy cells left untreated (−) or treated with the indicated amounts of rhCSF-1 (black bars) or water control (open bars) under serum-reduced conditions (1% FCS) determined after 48 h. […]

[2] = test system: L540Cy cells; assay: [3H]-thymidine incorporation in L540Cy cells; format: cell-based, human; conditions: 1% FCS, 48 h
Method: FIG. 3. HRS cells depend on CSF1R activity. (A) L540Cy cells were left untreated (−) or treated with the indicated amounts rhCSF-1 (closed bars) or the respective control (open bars) under serum reduced conditions (1% FCS). After 48 hours, cells were pulsed with 1 μCi [^3H]-thymidine per well for a further 20 hours, and [^3H]-thymidine incorporation was determined cpm, counts per minute. Data are represented as mean±SD. (3A) [^3H]-thymidine incorporation in L540Cy cells left untreated (−) or treated with the indicated amounts of rhCSF-1 (black bars) or water control (open bars) under serum-reduced conditions (1% FCS) determined after 48 h. Data are represented as means±s.d. […] After 24 hours, cells were pulsed with [^3H]-thymidine incorporation and analyzed as described in (A). […] CSF1R tyrosine phosphorylation was analyzed as described in FIG. 1F. […]
DNA synthesis was determined by [^3H]-thymidine incorporation assays using standard protocols. The percentage of viable and apoptotic cells was determined by annexin V-FITC/propidium iodide (PI) double-staining (Bender MedSystems) and subsequent FACS analysis.
We determined DNA synthesis by [^3H]-thymidine incorporation assays using standard protocols. In case of L540Cy cells (FIG. 1d), after 48 hours, cells were pulsed with 1 μCi [^3H]-thymidine per well for a further 20 hours, and [^3H]-thymidine incorporation was determined. […]

CSF1R tyrosine phosphorylation following stimulation [1]: rapid increase
B1: rhCSF-1: recombinant human CSF-1 (216-MC, R&D Systems) (protein)
chain: EEVSEYCSHMIGSGHLQSLQRLIDSQMETSCQITFEFVDQEQLKDPVCYLKKAFLLVQDIMEDTMRFRDNTPNAIAIVQLQELSLRLKSCFTKDYEEHDKACVRTFYETPLQLLEKVKNVFNETKNLLDKDWNIFSKNCNNSFAECSSQDVVTKPDCN
proliferation ([3H]-thymidine incorporation) [2]: induced proliferation in a dose-dependent manner
